Earlier results on 2 substances are cited in PMC6295873 (Chemical Science, 2018).

The conditions of series [1]: MUC1-based anticancer-vaccines; ref 39 (preceding sentence).

Take “KP10: endogenous neuropeptide acting through its cognate G-protein-coupled receptor, KiSS1R”: the half-life in blood is under 1 min.

Turning to “natural MUC1 glycoprotein: densely O-glycosylated human mucin glycoprotein”, the immunogenicity result in series [1] was “very low immunogenicity”.
